Experimental data from patent publication US20110314564A1, “ENZYMES AND METHODS FOR HYDROLYSING PHENYLUREAS, CARBAMATES AND ORGANOPHOSPHATES” (priority 2008, published 2011).

Assays:
[1] = test system: Mycobacterium brisbanense strain JK1; assay: Degradation of diuron and accumulation of DCA in liquid culture; format: cell-based; settings: alternate nitrogen source present
Description: MM (50 mL) supplemented with 10 mM glucose, 0.13 mM diuron and 18.7 mM ammonium chloride (as required) were inoculated with 0.2% of a homogeneous suspension of freshly grown M. brisbanense strain JK1 cells (0D600=˜10). Cultures were incubated at 28° C. with shaking at 200 rpm, in the dark. Samples were taken at ˜24 hour intervals, and metabolites were extracted in 50% acetonitrile, filtered and analysed by HPLC.

[2] = neutral buffer; estimated from the work of Salvestrini et al. (2002); cited from earlier work
PuhB = PuhB (Mycolicibacterium brisbanense, UniProt B8R4K0); assay: Hydrolysis of phenylurea, carbamate and organophosphate substrates by purified PuhB (LCMS / FBBS / A400 assays); settings: PuhB
[3] = Thermal stability: residual activity after 10 minutes pre-incubation, Boltzmann fit; format: biochemical
Description: (§1) The influence of solvents (acetonitrile and methanol) was examined by using 7 concentrations from 0.4-18.2% over 1 hour duplicate assays with 77 μM diuron and monitored by LCMS. The effect of temperature on the activity of the enzymes was determined in two ways: firstly, the temperature at which reaction was catalysed was controlled at 12 temperatures ranging from 2-60° C. with 154 μM diuron; secondly, enzyme was preincubated at 6 temperatures from 30-55° C. for 10 minutes prior to 1 hour assays at 25° C. The residual activity data was obtained by LCMS and fitted to the Boltzmann function (eq 1)
(§2) A bell shaped model (eq 2)

[4] = Stability in the presence of the solvents acetonitrile and methanol; format: biochemical; settings: 1-18% v/v solvent
Description: as §1

[5] = Activity of native PuhA and PuhB at each purification step (DCA formation); format: biochemical
Description: (§3) Protein concentration was estimated using the Bio-rad protein assay (Bradford), with bovine serum albumin used as standard. Protein purity was monitored using sodium dodecyl sulphate-polyacrylamide gel electrophoresis (SDS-PAGE) stained with Coomassie brilliant blue. Where PuhA and B concentrations were estimated in semi purified extracts, SDS-PAGE gels were scanned using Labscan v5 (Amersham Biosciences) and band densitometry performed with Total lab TL100 (Nonlinear dynamics). Talon cobalt resin (BD Biosciences) was used for the purification of hexa-histidine tagged protein. Untagged protein was purified by ammonium sulfate (AS) precipitiation followed by hydrophobic interaction chromatography (HIC; Phenylsepharose), anion exchange chromatography (AEX; Macro Q) and size exclusion chromatography (SEC; Superose 6 or Sephadex 200). All columns were purchased from GE Healthcare. The hydrophobic interaction column was equilibrated with Tris (pH 8)/1 M ammonium sulfate and bound protein was then eluted with Tris (pH 8) over 400 mL. Protein was bound to the anion exchange column with Tris (pH 8) and eluted with a gradient of Tris (pH 8)/1 M NaCl over 500 mL. The buffer was exchanged to 25 mM HEPES/50 mM KCl (pH 8) during SEC and the protein was stable in this buffer at 4° C. for several weeks. The oligomeric structure was estimated with a Superose 6 size exclusion column calibrated with the following protein standards (kDa): thyroglobulin (669), ferritin (440), catalase (232) and aldolase (158). Standard tryptic peptide mass fingerprinting was used to confirm the identity of proteins excised from polyacrylamide gels by liquid chromatography electro spray ionisation mass spectroscopy/mass spectroscopy (LC ESI MS/MS) ion trap following the method of Campbell et al. (2008).

[6] = Activity of PuhA and PuhB expressed in M. smegmatis at each purification step (PNP release); format: biochemical
Description: (§4) Pwo polymerase (Roche) and restriction enzymes NdeI, BamHI and HindIII (Fermentas) were used following manufacturers' protocols. Electro-competent E. coli strains JM109 (Promega) were utilised for transformation of ligation reactions (using Promega ligase). Protein expressions in E. coli were inoculated (1% v/v) with an overnight seed culture in LB and then incubated with shaking at 20° C. for 11 hours followed by induction with 0.1 mM isopropyl-β-D-thiogalactopyranoside (IPTG) for 3 hours. M. smegmatis expressions were amended with 0.05% tween 80 and grown in LB at 28° C. for 2-4 days with no induction. Clarified cell-free extracts were obtained by resuspending the bacteria in 25 mM Tris (pH 8) followed by 3 passes through a French pressure cell (Thermo) and centrifugation at 27,000 g (Beckman Avanti).
as §3

[7] = Bronsted plots (pKa of leaving group vs log kcat) for N-dimethyl phenylureas; format: biochemical; settings: slope between pKa 4-5
Description: (§5) was used to fit an activity y, either log(kcat) and log(kcat/Km) vs. pH. (y)^max is the plateau value and pKa^1 and pKa^2 are the apparent pKa values for the acidic and basic groups, respectively. Equations were fitted to the data using Kaleidagraph v3.6 (Synergy Software). The substrate pKa values were obtained via an online database www.syrres.com/esc/physdemo.htm (Syracuse Research Corporation).

[8] = Diuron hydrolase activity in the soluble fraction of recombinant expression hosts; format: biochemical
Description: PuhA and PuhB were amplified as N-hexa-histidine tagged fusions from pET14b (Novagen) in E. coli rosetta II cells (Novagen) and pMV261 (Stover et al., 1991) in M. smegmatis mc2. Protein without hexa-histidine tags was later expressed in M. smegmatis mc2. The PCR primers used in these cloning procedures are noted in Table 2 (SEQ ID NOs 5 to 13).
as §4

[9] = pH dependence of kcat, kcat/Km and Km with diuron in constant ionic strength buffer; format: biochemical
Description: as §2, §5

## CN(C)C(=O)Nc1ccc(Cl)c(Cl)c1 [diuron, N′-3,4-dichlorophenyl N-dimethylurea]
[1]
  degradation of diuron (loss of diuron, accumulation of DCA): degradation of diuron was confirmed
[2]
  knon: 2.8e-10 s⁻¹
PuhB
  kcat: 0.48 s⁻¹
PuhB; diuron
  rate enhancement kcat/knon: 1.7×10^9

B1: PuhB: phenylurea hydrolase from Mycobacterium brisbanense JK1, amino acid sequence SEQ ID NO:1 (protein)
chain: MSTIAITNVTLIDGLGGLPRPATTVIVEGDRFATVGPSDSTPVPEGATVVDGNRRWMVPGYVNGNVHLLDAWMFMAGPGTIEYLARWEGRYVEVIEEAAQLALRNGVTTVFDTHNAIEPVLAARDRINAGISQGARIFAAGTIVGMGGPFSADFHFAGRTAATRTFVDRIDSMFEAGVGHQLSLLPRKEVRARVRDYLSRGVDMLKIAVSDHIVFTLVDRSVGFDRSYQTFSRPVLEVMVEEARAAGVPVLTHSVSVEALDTSVELGADVLIHANYTLGQEIPNYLIDKIVASDSWAGLQTVHDQHRQGLEDVGSWAAALAGEPYATNERNLISANAKILLNTDAGCPSKDHLADLSPVEREDRPWTIGNDHFHWTQSMVEKGMSPLEAISAATINVARAYGKADQIGSVETGKLADFVLLDQDPVDDIRNLRSITEVFQAGAAVDRAALPTTPLVTAHPA
modifications: Mycobacterium brisbanense JK1
[3]; 10 minutes incubation at 40° C.
  residual activity after incubation (in words): retaining significant activity
[3]; 10 minutes pre-incubation, then 1 hour assay at 25° C.
  Tm indicating 50% activity retained: 46.0 °C
[4]
  activity in the presence of methanol and acetonitrile (in words): significantly inhibited
[5]; AS (ammonium sulfate)
  Activity (nmol DCA/μg/hour): 0.24 nmol DCA/μg/hour
[5]; CFE (cell free extract)
  Activity (nmol DCA/μg/hour): 0.05 nmol DCA/μg/hour
[5]; HIC
  Activity (nmol DCA/μg/hour): 0.24 nmol DCA/μg/hour
[5]; SEC
  Activity (nmol DCA/μg/hour): 0.04 nmol DCA/μg/hour
[6]; AEX
  Activity (mM PNP/mg/min): 3.9 mM PNP/mg/min
[6]; CFE
  Activity (mM PNP/mg/min): 0.1 mM PNP/mg/min
[6]; HIC
  Activity (mM PNP/mg/min): 1.4 mM PNP/mg/min
[6]; SEC
  Activity (mM PNP/mg/min): 4.3 mM PNP/mg/min
[7]
  βlg: −1.1
[8]; expressed in E. coli Rosetta 2 DE3 from pET14b
  activity in the soluble fraction (in words): no activity was detected
[8]; expressed in M. smegmatis from pMV261
  activity in the soluble fraction (in words): displayed diuron hydrolase activity
[9]; acidic shoulder
  pKe1: 5.0
  pKes1: 5.0
[9]; basic shoulder
  pKe2: 9.6
  pKes2: 10.6
[9]; basic side
  pKe of the decrease in catalytic efficiency: ~10
